Assay results taken from the supplement of paper PMC9732359.
± gives the uncertainty stated by the source.

Test: protein stability index of a GFP-peptide fusion (yeast GPS) (PSI 1-4); higher = more stable; sorted into four equal gates, so the index is relative within each strain
How it was run: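 The protein stability index of a peptide was calculated by multiplying its read frequency in each gate by that gate's number and adding the products. The peptides were tiled 17-residue stretches of yeast proteins, fused downstream of GFP on a Cherry-expressing plasmid and carried in yeast as a pooled library. Mid-log cultures in leucine-free medium were sorted into four equal gates by GFP/Cherry ratio, and each gate's plasmids were PCR-amplified and Illumina-sequenced.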

Sequence	protein stability index (doa10∆)	protein stability index (pdr5∆)	protein stability index (ubr1∆)	protein stability index (san1∆)
QLDGFSSDDRVKVLAAT [RPT5]	2.88 ± 0.16	2.83 ± 0.096	1.58 ± 0.12	
QMIELNRQICLVQKTVQ [GRR1]	3.03 ± 0.1	2.56 ± 0.055	2.09 ± 0.055	2.5 ± 0.063
TTDSLTKVLQADLPGSY [YMR129W/POM152]	2.38 ± 0.082	2.79 ± 0.14	2.43 ± 0.078	2.49 ± 0.1
ADESKMAKLNECPLDPG [RET1]	2.64 ± 0.083	2.74 ± 0.095	2.08 ± 0.079	2.85 ± 0.082
SPIFEVLSDDAKKLSSF [ARP9]	2.84 ± 0.062	3.19 ± 0.11	3 ± 0.069	2.88 ± 0.058
LKVLSGDEGYNEDMVRR [SNF12]	3.48 ± 0.13	3.22 ± 0.13	3.56 ± 0.15	3.25 ± 0.095
TNTSKQFQKARNNVMLL [SRB8]	2.65 ± 0.14	3 ± 0.066	2.92 ± 0.083	2.94 ± 0.06
LLIDQFSPVISQSLTSI [SWI1]	1.64 ± 0.074	1.99 ± 0.067	1.66 ± 0.064	1.64 ± 0.11
PSLRDRRERRLIFGTIA [RPT3]	1.41 ± 0.08	2.04 ± 0.099	1.85 ± 0.07	1.63 ± 0.079
VSNSISRLGEENLPGLS [SNU114]	1.14 ± 0.12	1.27 ± 0.15	1.07 ± 0.12	1.07 ± 0.15
VQCPTVIKLAKYPDYFP [ARP9]	2.15 ± 0.079	1.81 ± 0.049	1.82 ± 0.047	2.31 ± 0.092
PAKIVNFEKPKNSSQLL [RPN5]	3.06 ± 0.075	3.2 ± 0.068	3.2 ± 0.06	3.21 ± 0.052
HLSKSPADRPQGRRNSR [SIR4]	2.79 ± 0.089	2.85 ± 0.067	2.78 ± 0.058	2.75 ± 0.059
GRLEIFKIHTAKVKKTG [RPT4]	2.13 ± 0.11	2.89 ± 0.12	2.51 ± 0.097	2.33 ± 0.19
KTRFKGSQFIVVSLKEG [SMC2]	3.46 ± 0.12	3.16 ± 0.08	3.34 ± 0.046	3.35 ± 0.069
DRDESSPYAAMLAAQDV [RPS14A]	3.02 ± 0.088	3.21 ± 0.072	3.27 ± 0.078	2.55 ± 0.09
AVDNCAICRNHIMEPCI [HRT1]	2.12 ± 0.071	2.79 ± 0.09	2.2 ± 0.07	2.02 ± 0.086
GDVKNMEDVKIQKEEEP [SWI3]	3.45 ± 0.14	3.4 ± 0.2	3.14 ± 0.12	3.43 ± 0.085
SSLMNGLGYVFEFQYLT [SRB5]	2.25 ± 0.095	1.83 ± 0.085	3.19 ± 0.073	1.64 ± 0.084
EARINELLSSLEGKGSL [RPP2B]	2.74 ± 0.12	2.79 ± 0.099	3.2 ± 0.077	2.91 ± 0.047
KIPLPEVHDLIGFITSG [POP1]		1.66 ± 0.24	1.91 ± 0.14	1.88 ± 0.18
GNAPATPSSDQNPLPTR [SOH1]	3.44 ± 0.13	2.98 ± 0.065	3.17 ± 0.067	2.63 ± 0.077
LVHGIFGAKMSRTLILS [SIN4]	1.8 ± 0.063	1.41 ± 0.044	1.65 ± 0.039	1.36 ± 0.088
LMTFNAETKSYDSRGVG [YLR335W/NUP2]	2.19 ± 0.063	2.65 ± 0.059	2.71 ± 0.048	2.74 ± 0.054
TEGHKGHEELKRRIEEE [ISW2]	3.33 ± 0.085	3.42 ± 0.09	3.23 ± 0.065	3.11 ± 0.068
MKPSEILSLIEEAAGTK [SMC2]	3.24 ± 0.1	3.23 ± 0.084	3.22 ± 0.064	3.22 ± 0.083

Sequence	protein stability index (doa10∆)	protein stability index (pdr5∆)	protein stability index (ubr1∆)	protein stability index (san1∆)
DIISGKIHSILPVMESL [YJR042W/NUP85]	2.85 ± 0.074	3.13 ± 0.11	2.4 ± 0.062	2.84 ± 0.11
DNKMDSVKEDVKNNQEL [SMC4]	2.85 ± 0.14	3.02 ± 0.084	3.36 ± 0.14	2.51 ± 0.17
SGNNSKKRKNKSSGSSM [ROX3]	2.65 ± 0.14	2.94 ± 0.075	3.17 ± 0.068	2.91 ± 0.12
VEYLTRYVAGVQQRYTQ [PRE6]	1.47 ± 0.065	1.89 ± 0.086	1.66 ± 0.1	1.65 ± 0.09
SKSVPTPSLPIAPPVAP [SNF5]	2.74 ± 0.057	2.81 ± 0.061	2.55 ± 0.061	3.1 ± 0.045
PGRKYTTLGKLSTSVGW [RPL16A]	2.92 ± 0.089	2.78 ± 0.092	2.47 ± 0.091	2.2 ± 0.23
LFRIFSMSEEFKYVSVR [BRR2]	2.39 ± 0.14	3.18 ± 0.15	3.29 ± 0.12	2.99 ± 0.18
LNFYITNVPKAKKRKTL [SIR3]	1.97 ± 0.12	1.86 ± 0.093	1.86 ± 0.071	1.63 ± 0.12
MAESLVDLEEVMDTIQE [SSN8]		3.02 ± 0.16	3.2 ± 0.093	3.2 ± 0.19
STAFVPTIEYVQCPTVI [ARP9]	1.68 ± 0.065	1.97 ± 0.048	1.88 ± 0.052	1.71 ± 0.08
TKESQPTIEEDLTRVYK [FAS2]	3.46 ± 0.12	3.32 ± 0.094	3.48 ± 0.091	3.2 ± 0.07
GNRNSSSVFLPSRKDCM [BRR2]	3.18 ± 0.086	3.16 ± 0.071	3.22 ± 0.074	3.2 ± 0.057
CISLSGVPNYLVQLEPH [SSN2]	1.85 ± 0.062	2.09 ± 0.08	2.2 ± 0.065	2.29 ± 0.083
ASVYPEYALPKTYNKLH [RPS26A]	2.92 ± 0.076	2.51 ± 0.053	2.71 ± 0.031	2.79 ± 0.059
ADINKNFLSVITNKHQE [RPN2]	1.93 ± 0.074	2.11 ± 0.06	1.71 ± 0.057	1.84 ± 0.087
ALPDVVVKGLPDISRAV [RPO31]	2.85 ± 0.13	2.74 ± 0.079	3.08 ± 0.12	2.86 ± 0.072
SSDAFEVDVCDKCGLMG [RET1]	2.38 ± 0.18	2.59 ± 0.11	2.12 ± 0.11	2.33 ± 0.19
DDEKNDKQARKQRTKKE [SNF2]	3.35 ± 0.3	3.53 ± 0.11	3.18 ± 0.1	3.06 ± 0.088
KNYPEYFLKVTFLKYFG [IRR1]	1.33 ± 0.085	1.54 ± 0.052	1.49 ± 0.046	1.22 ± 0.14
ASNGRNKKGRGHVKPVR [RPS26A]	3.46 ± 0.075	3.35 ± 0.086	3.3 ± 0.056	3.45 ± 0.082
KNPRVTKEYLVQNLRSW [CSN9]		3 ± 0.3	3.36 ± 0.091	3.16 ± 0.11
SFGSKPTGKEEGDGAKA [YJL041W/NSP1]	3.59 ± 0.12	3.31 ± 0.065	3.21 ± 0.083	3.48 ± 0.11
LYYDEDINVESLTQSVC [PUP2]	2.36 ± 0.061	2.25 ± 0.052	2.21 ± 0.031	2.46 ± 0.064
LYENIASSPIILEEGSS [RPN10]	2.2 ± 0.04	2.37 ± 0.047	2.35 ± 0.036	2.35 ± 0.06
TGTARLNSMPNNVNEYS [YJL039C/NUP192]	2.82 ± 0.1	2.74 ± 0.085	2.89 ± 0.056	3.01 ± 0.052
